What follows are sequences tested on Escherichia coli TOP10 (assay: shrunken log2 fold change of peptide-encoding DNA abundance (4.5 h post-induction vs induction); higher = less antimicrobial activity (less host growth inhibition)). Settings: time post-induction: 4.5 h; library: site-saturation at positions 5, 18, 19, 20.
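Further: peptides expressed intracellularly from a pBAD plasmid library in pooled LB shake-flask culture, induced with 0.3% L-arabinose, DNA abundance read by NGS, three biological replicates, DESeq2 with apeglm shrinkage.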

Sequence	shrunken log2 fold change
RRIRSRPPRLPRPRPRPGPCPRP	0.0781
RRIRSRPPRLPRPRPRPIHQPRP	-0.114
RRIRCRPPRLPRPRPRPQMIPRP	-1.55
RRIRRRPPRLPRPRPRPCGWPRP	0.776
RRIRYRPPRLPRPRPRPQHAPRP	-0.313
RRIRARPPRLPRPRPRPGQFPRP	0.109
RRIRYRPPRLPRPRPRPNTKPRP	-0.0891
RRIRYRPPRLPRPRPRPQGVPRP	-0.464
RRIRCRPPRLPRPRPRPCQQPRP	-0.0438
RRIRMRPPRLPRPRPRPGPVPRP	1.14
RRIRGRPPRLPRPRPRPWCHPRP	-0.0582
RRIRKRPPRLPRPRPRPRNRPRP	-0.139
RRIRPRPPRLPRPRPRPGTPPRP	0.0946
RRIRSRPPRLPRPRPRPIMIPRP	-0.426
RRIRHRPPRLPRPRPRPGTFPRP	-0.132
RRIRMRPPRLPRPRPRPLGDPRP	0.364
RRIRDRPPRLPRPRPRPKCWPRP	-0.00042
RRIRARPPRLPRPRPRPNHKPRP	-0.351
RRIRARPPRLPRPRPRPEYIPRP	0.0332
RRIRQRPPRLPRPRPRPDEIPRP	-0.00251
RRIRLRPPRLPRPRPRPQNFPRP	0.0254
RRIRNRPPRLPRPRPRPVGSPRP	0.0409

Sequence	shrunken log2 fold change
RRIRSRPPRLPRPRPRPWADPRP	-0.307
RRIRVRPPRLPRPRPRPKSAPRP	0.172
RRIRARPPRLPRPRPRPSYAPRP	-0.165
RRIRVRPPRLPRPRPRPSHPPRP	-0.852
RRIRTRPPRLPRPRPRPHIIPRP	-0.0938
RRIRPRPPRLPRPRPRPHVGPRP	-0.0279
RRIRPRPPRLPRPRPRPNLFPRP	0.175
RRIRPRPPRLPRPRPRPWLRPRP	0.421
RRIRDRPPRLPRPRPRPMMMPRP	-0.0648
RRIRRRPPRLPRPRPRPDPNPRP	0.0237
RRIRWRPPRLPRPRPRPCRYPRP	-0.129
RRIRFRPPRLPRPRPRPPECPRP	-0.0973
RRIRQRPPRLPRPRPRPTGWPRP	0.19
RRIRHRPPRLPRPRPRPTTMPRP	-0.261
RRIRCRPPRLPRPRPRPPRTPRP	0.818
RRIRSRPPRLPRPRPRPHYLPRP	-0.403
RRIRFRPPRLPRPRPRPYMIPRP	-0.59
RRIRTRPPRLPRPRPRPHCGPRP	-0.0402
RRIRHRPPRLPRPRPRPFWTPRP	-0.766
RRIRLRPPRLPRPRPRPSEAPRP	0.12
RRIRRRPPRLPRPRPRPWKRPRP	-0.0441
RRIRNRPPRLPRPRPRPRHKPRP	-0.369

Sequence	shrunken log2 fold change
RRIRGRPPRLPRPRPRPIDWPRP	0.559
RRIRKRPPRLPRPRPRPFVGPRP	-0.0257
RRIRERPPRLPRPRPRPCAVPRP	-0.0406
RRIRGRPPRLPRPRPRPQHFPRP	0.139
RRIRSRPPRLPRPRPRPWIYPRP	-0.187
RRIRQRPPRLPRPRPRPCTTPRP	-0.104
RRIRMRPPRLPRPRPRPFVYPRP	-0.00869
RRIRIRPPRLPRPRPRPNPIPRP	-0.155
RRIRGRPPRLPRPRPRPQYRPRP	0.0878
RRIRSRPPRLPRPRPRPMKCPRP	0.235
RRIRDRPPRLPRPRPRPSGNPRP	0.499
RRIRYRPPRLPRPRPRPKWLPRP	-0.221
RRIRHRPPRLPRPRPRPRQMPRP	-0.0208
RRIRFRPPRLPRPRPRPASGPRP	0.206
RRIRNRPPRLPRPRPRPDQAPRP	-0.01
RRIRWRPPRLPRPRPRPMNYPRP	-0.364
RRIRSRPPRLPRPRPRPKYQPRP	-0.157
RRIRSRPPRLPRPRPRPKEVPRP	-0.00238
RRIRFRPPRLPRPRPRPHCGPRP	-0.308
RRIRWRPPRLPRPRPRPKMFPRP	-0.0838
RRIRDRPPRLPRPRPRPNVHPRP	-0.303
RRIRCRPPRLPRPRPRPLNAPRP	-0.255

Sequence	shrunken log2 fold change
RRIRGRPPRLPRPRPRPEAQPRP	1.61
RRIRSRPPRLPRPRPRPECAPRP	0.784
RRIRARPPRLPRPRPRPNFYPRP	0.0801
RRIRTRPPRLPRPRPRPWTWPRP	-0.0696
RRIRDRPPRLPRPRPRPYCAPRP	-0.204
RRIRNRPPRLPRPRPRPQQLPRP	-0.0538
RRIRDRPPRLPRPRPRPRSRPRP	0.00639
RRIRHRPPRLPRPRPRPAETPRP	-0.074
RRIRGRPPRLPRPRPRPQLWPRP	0.928
RRIRERPPRLPRPRPRPDELPRP	-0.00377
RRIRERPPRLPRPRPRPWIAPRP	-0.0555
RRIRNRPPRLPRPRPRPPTHPRP	0.0725
RRIRMRPPRLPRPRPRPFDEPRP	-0.0062
RRIRLRPPRLPRPRPRPGFIPRP	0.452
RRIRQRPPRLPRPRPRPYRMPRP	3.17
RRIRFRPPRLPRPRPRPVFTPRP	-0.0271
RRIRWRPPRLPRPRPRPAIFPRP	0.327
RRIRPRPPRLPRPRPRPNPFPRP	-0.382
RRIRDRPPRLPRPRPRPLYNPRP	-0.321
RRIRGRPPRLPRPRPRPDARPRP	0.34
RRIRSRPPRLPRPRPRPGHEPRP	0.101
RRIRCRPPRLPRPRPRPFKHPRP	-0.272

Sequence	shrunken log2 fold change
RRIRPRPPRLPRPRPRPCEPPRP	-0.00302
RRIRWRPPRLPRPRPRPFMDPRP	-0.41
RRIRDRPPRLPRPRPRPRAAPRP	0.609
RRIRNRPPRLPRPRPRPFFMPRP	0.0606
RRIRERPPRLPRPRPRPIDMPRP	-0.123
RRIRPRPPRLPRPRPRPHIMPRP	-0.663
RRIRLRPPRLPRPRPRPMYKPRP	-0.44
RRIRYRPPRLPRPRPRPMGRPRP	-0.117
RRIRIRPPRLPRPRPRPQKCPRP	-0.506
RRIRVRPPRLPRPRPRPYGCPRP	-0.00989
RRIRGRPPRLPRPRPRPYEFPRP	-0.0878
RRIRNRPPRLPRPRPRPPIIPRP	-0.192
RRIRFRPPRLPRPRPRPAWVPRP	0.255
RRIRHRPPRLPRPRPRPTILPRP	-0.194
RRIRKRPPRLPRPRPRPYPAPRP	0.289
RRIRRRPPRLPRPRPRPAPYPRP	0.408
RRIRDRPPRLPRPRPRPTQVPRP	0.0721
RRIRVRPPRLPRPRPRPDLQPRP	0.00798
RRIRCRPPRLPRPRPRPPHVPRP	0.385
RRIRNRPPRLPRPRPRPFKHPRP	-0.39
RRIRERPPRLPRPRPRPFMSPRP	-0.0685

Reference: the supplement of paper PMC9112550, “Optimization of the antimicrobial peptide Bac7 by deep mutational scanning” (BMC Biology, 2022)
